Data on one substance can be found in article PMC3549482.

Where two headings read alike, the source gives them in different places.

For experiment [1], the target named is CD81 on 293-T cells (human (endogenous in HEK 293-T)) (UniProt P60033). Nature of the experiment: flow cytometry on cells. A general note: In flow cytometry, cells or beads pass a laser one at a time.
Experiment [2] has the same target. Nature of the experiment: flow cytometry on cells. This is another data set of the same source.

Sequence of UniProt P60033 (P60033 whole entry): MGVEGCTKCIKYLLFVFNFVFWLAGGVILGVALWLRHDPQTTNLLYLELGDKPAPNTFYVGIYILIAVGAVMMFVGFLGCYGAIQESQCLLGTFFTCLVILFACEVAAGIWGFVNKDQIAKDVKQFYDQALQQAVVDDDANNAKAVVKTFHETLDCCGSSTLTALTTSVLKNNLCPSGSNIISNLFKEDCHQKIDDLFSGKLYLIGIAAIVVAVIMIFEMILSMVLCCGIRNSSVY

For the substance “HCV E2 (strain not told for the experiment on 293-T cells) (natural protein)”, the values for the Mean FI in experiment [1] and in experiment [2] were 79 and 62, respectively.
